Experimental data taken from patent US20260232759A1 (WISCONSIN ALUMNI RESEARCH FOUNDATION, published 2026).
No end group written: not given here. PEG‑cholesterol = not defined here

B1: D1 Q4 D32 Q34 (peptide)
peptide: DISQINASVVNIEYEIKKLEEVAKKLEESLIDLQELGSGSGC(PEG‑cholesterol)
modifications: not fully specified (C-terminus); reading uncertain; also: β2- or β3-amino acids, presumably D1, Q4, D32, Q34
B2: D1 Q4 D32 E35 (peptide)
peptide: DISQINASVVNIEYEIKKLEEVAKKLEESLIDLQELGSGSGC(PEG‑cholesterol)
modifications: not fully specified (C-terminus); reading uncertain; also: β2- or β3-amino acids, presumably D1, Q4, D32, E35

Molecular target: SARS-CoV-2 Spike protein (SARS-CoV-2, UniProt P0DTC2 14-1273)
Test: cell-based or functional assay

Row | Binder | inhibition of S-mediated cell-cell fusion (β-Gal complementation), IC50 [nM]
1 | B1 | ~10
2 | B2 | ~50
